Measured values as given in patent US20260091082A1, “CYCLIC PEPTIDE DERIVATIVE COMPOSITION FOR TREATING OR PREVENTING EYE DISEASE” (DKS Co. Ltd., priority 2022, published 2026).
Several values for one entry are separate records, joined by “and”; a condition that tells them apart may be missing. Equal entries are not always repeated.

What was measured:
[1] = test system: laser-induced choroidal neovascularization rat model; experiment: Laser-induced choroidal neovascularization rat model: CNV area in choroidal flat mount (FITC-dextran); type: in vivo
Method: The groups were set as in Table 8 below. Laser irradiation was performed on the right eye in 10 animals in each group. EYLEA (registered trademark) was administered intravitreally into the right eye of individuals in Group 2 immediately after laser irradiation. For the individuals of Groups 1, 3, and 4, eyedrop administration of the administration substances of each group was performed four times a day from the day of laser irradiation to the day before eyeball enucleation.
Animals to be laser-irradiated were subjected to pupil dilation with Mydorin (registered trademark) P ophthalmic solution, and subjected to general anesthesia by intramuscular injection of a mixed solution of ketamine hydrochloride/xylazine hydrochloride (4:1, v/v) (1 mL/kg) into the thigh muscle. Then, fundus of the right eye was then observed using a slit lamp (SL-130, Carl Zeiss Meditec AG), and laser irradiation was performed at six locations using a green laser photocoagulation device (GYC-500, Nidek Co., Ltd.), avoiding thick capillaries of the retina. The laser conditions were a wavelength of 532 nm (green), a spot size of 50 μm, an irradiation time of 0.1 sec, and a laser irradiation intensity of 300 mW. Except for the individuals to be administered EYLEA (registered trademark), sodium hyaluronate (Hyalein (registered trademark) ophthalmic solution 0.3%, Santen Pharmaceutical Co., Ltd.) as an eye drop for treatment of corneal and conjunctival epithelial disorders was instilled into both eyes after laser irradiation.
Levofloxacin hydrate (CRAVIT (registered trademark) 1.5% ophthalmic solution, Santen Pharmaceutical Co., Ltd.) as a broad-spectrum antibacterial eye drop and oxybuprocaine hydrochloride (Benoxil (registered trademark) 0.4% ophthalmic solution, Santen Pharmaceutical Co., Ltd.) as an ophthalmic topical anesthetic were once instilled into the right eye of rats in Group 2 (EYLEA (registered trademark) administration group) after end of laser irradiation, and then EYLEA (registered trademark) was intravitreally administered at a dose of 200 μg/5 μL/eye using a 33 G two-stage injection needle and a microsyringe (Ito Manufacturing Co., Ltd.). The microsyringe was washed with D-PBS before administration. Hyalein (registered trademark) ophthalmic solution 0.3% was instilled into both eyes after intravitreal administration.
Eyedrop administration of the test substance and the negative control administration solution was performed in a volume of 5 μL/eye using a micropipette (Eppendorf Research Plus V, Eppendorf) at the administration period and the number of times determined for each group (see Group constitution table of Item (2)). At that time, since a test substance solution adheres to an outer side of the tip, care was taken so that the adhering test substance solution was wiped off with a Kimwipe once each time of eyedrop administration, and an excessive amount of the test substance solution was not instilled. In addition, although the tip of the pipette tip was sharp, care was taken not to damage the eyeball surface. Immediately before administration, the administration solution was lightly (about several seconds) centrifuged using a small microcentrifuge Wonder Spin, and the supernatant was used for administration.
Fourteen days after laser irradiation (Day 14), under general anesthesia by intramuscular femoral administration (1 mL/kg) of a ketamine hydrochloride/xylazine hydrochloride (4:1, v/v) mixed solution, a 4% FITC-dextran solution was administered to the tail vein at a dose of 40 mg/l mL/animal.
After 1 minute from the tail vein administration of the 4% FITC-dextran solution, rats were euthanized by excessive anesthesia by administration of 129.6 mg/mL sodium pentobarbital solution and the right eye ball was enucleated. The enucleated eyeball was fixed in a 4% paraformaldehyde phosphate buffer (FUJIFILM Wako Pure Chemical Corporation, hereinafter referred to as 4% PFA) for 12 to 30 hours at normal temperature. […]

[2] = Body weight measurement during the CNV rat test; type: in vivo; settings: for Body Weight (Average): Group 2, IVT inj. 200 μg/5 μL/eye single dose; for Weight (g) (Individual): Group 2 individual animals, IVT 200 μg/5 μL/eye
Method: The appearance, behavior, and state of excrement or the like were observed every day.
The body weight was measured on the animal arrival date, the preliminary housing end date (grouping date), the eyedrop administration start date, the laser irradiation date (Day 0), and the eyeball enucleation date (Day 14).

Substance: Aflibercept [EYLEA]
- Area of CNV Lesion, Mean ([1]; Group 2, IVT inj. 200 μg/5 μL/eye single dose after irradiation, 14 days after laser, N=10): 421359.3 pixel
- CNV area compared with Group 1 (saline), in words ([1]; Group 2, intravitreal 200 μg/5 μL/eye, Student's t-test): CNV area was significantly reduced
- Individual Value of CNV Area in Each Animal ([1]; Group 2 individual animals, IVT 200 μg/5 μL/eye, 14 days after laser): 396255.8 pixel and 417758.8 pixel and 460248.8 pixel and 470883.0 pixel and 474112.7 pixel and 444455.3 pixel and 440849.3 pixel and 374017.3 pixel and 402387.0 pixel and 332625.3 pixel
- Body Weight (Average) ([2]; Day 0 (Laser injection)): 155.10 g
- Body Weight (Average) ([2]; Day 14 (Enucleation)): 200.52 g
- Body Weight (Average) ([2]; Day −3 or Day −2 (Grouping)): 141.91 g
- Weight (g) (Individual) ([2]; Enucleation (Day 14)): 191.41 g and 189.23 g and 203.15 g and 192.58 g and 215.19 g and 210.30 g and 206.10 g and 205.20 g and 197.20 g and 194.87 g
- Weight (g) (Individual) ([2]; Grouping (Day −3 or −2)): 132.69 g and 135.94 g and 139.54 g and 143.39 g and 145.96 g and 144.35 g and 147.21 g and 151.85 g and 140.51 g and 137.64 g
- Weight (g) (Individual) ([2]; Laser injection (Day 0)): 140.59 g and 146.82 g and 151.42 g and 154.62 g and 160.15 g and 162.32 g and 160.99 g and 169.71 g and 155.47 g and 148.87 g
